Paper PMC10992996, “Human CRB1 and CRB2 form homo- and heteromeric protein complexes in the retina” (Life Science Alliance, 2024)

Biological target: T1, CRB1-FLAG p.C1174G (human, UniProt P82279 26-1406, p.C1174G)
T1 construct: Crumbs homolog 1, canonical form, human, cDNA NM_202153 as printed, with a patient missense mutation; Made by site-directed mutagenesis of m1; also called CRB1 p.C1174G; CRB1-FLAG MT; source: HEK293T, transfected, in lysate; not shown: Strep-Strep-FLAG, N-terminal, kept
T1 sequence (looked up): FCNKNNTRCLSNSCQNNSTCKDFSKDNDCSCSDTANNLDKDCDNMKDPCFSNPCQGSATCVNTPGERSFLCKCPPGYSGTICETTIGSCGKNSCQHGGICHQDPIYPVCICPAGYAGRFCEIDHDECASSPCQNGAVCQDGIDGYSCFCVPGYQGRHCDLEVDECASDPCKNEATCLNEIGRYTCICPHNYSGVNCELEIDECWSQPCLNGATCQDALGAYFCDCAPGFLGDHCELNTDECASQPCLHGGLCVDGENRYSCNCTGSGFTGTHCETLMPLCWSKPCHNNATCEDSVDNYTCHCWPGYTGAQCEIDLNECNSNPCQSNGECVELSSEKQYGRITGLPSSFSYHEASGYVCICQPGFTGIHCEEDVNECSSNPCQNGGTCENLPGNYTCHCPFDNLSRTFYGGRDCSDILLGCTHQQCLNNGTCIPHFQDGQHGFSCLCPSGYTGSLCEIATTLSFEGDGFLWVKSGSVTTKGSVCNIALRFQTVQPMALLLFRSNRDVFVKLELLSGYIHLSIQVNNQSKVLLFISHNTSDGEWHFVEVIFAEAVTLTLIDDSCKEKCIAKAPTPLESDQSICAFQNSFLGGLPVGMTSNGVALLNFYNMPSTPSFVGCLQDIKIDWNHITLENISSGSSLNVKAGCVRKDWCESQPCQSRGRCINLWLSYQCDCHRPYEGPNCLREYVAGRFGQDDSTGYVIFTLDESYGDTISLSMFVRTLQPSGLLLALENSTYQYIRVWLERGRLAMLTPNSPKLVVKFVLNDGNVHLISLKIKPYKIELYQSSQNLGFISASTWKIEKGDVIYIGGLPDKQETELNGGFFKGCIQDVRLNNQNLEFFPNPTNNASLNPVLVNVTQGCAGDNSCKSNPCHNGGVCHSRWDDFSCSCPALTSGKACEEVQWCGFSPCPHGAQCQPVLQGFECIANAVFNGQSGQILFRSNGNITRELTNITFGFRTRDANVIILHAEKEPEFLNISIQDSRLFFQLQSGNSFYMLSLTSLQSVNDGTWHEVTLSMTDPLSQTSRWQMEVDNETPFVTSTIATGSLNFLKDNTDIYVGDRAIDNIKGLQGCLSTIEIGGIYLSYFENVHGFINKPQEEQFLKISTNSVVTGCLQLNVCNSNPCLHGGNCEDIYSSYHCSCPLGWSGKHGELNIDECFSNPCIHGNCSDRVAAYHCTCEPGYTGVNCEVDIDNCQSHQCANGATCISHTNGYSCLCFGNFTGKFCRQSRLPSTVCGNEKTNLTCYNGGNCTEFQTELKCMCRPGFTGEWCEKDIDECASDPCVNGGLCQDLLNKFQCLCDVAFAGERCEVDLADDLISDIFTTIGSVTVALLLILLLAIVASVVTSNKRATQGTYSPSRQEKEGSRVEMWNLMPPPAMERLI
Test: co-IP; HEK293T cells co-transfected pairwise with a FLAG and an HA construct, 48 h; lysis in TBS (30 mM Tris-HCl pH 7.4, 150 mM NaCl) with 0.5% Nonidet P40; FLAG-IP on ANTI-FLAG M2 Affinity Gel 60-90 min at 4°C, elution with FLAG peptide; Western blot with HA and FLAG antibodies; for mutants HA/FLAG signal in eluates relative to WT, three biological replicates
Conditions: partners not purified

B1: Human canonical CRB2 (Crumbs homolog 2) (natural protein)
chain: not shown
notes: Crumbs homolog 2, human, cDNA NM_173689; Stood as bait (FLAG copy) and as prey (HA copy) in the pairwise co-IP matrix; each copy carries only one of the two tags; The FLAG copy was the bait of the mass spectrometry pull-downs; also called CRB2-FLAG; CRB2-HA; source: HEK293T, transfected, in lysate (co-IP); HEK293T, transfected, FLAG-IP on beads, washed and purified with 0.01% SDS (retina …)
percent reduction of the interaction relative to CRB1 WT: 17%
